In assay [1] the test system is P. aeruginosa strains PAO1, 33356, 6294, 6077, 6206. Briefly: Acute pneumonia model, organ burden. Format: in vivo, BALB/c mice. Particulars: 6294 (O6) and 6206 (O11); FIGS. 7E, 7F. As for the experimental part:
Antibodies or PBS were administered 24 hours before infection in each model. P. aeruginosa acute pneumonia, keratitis, and thermal injury infection models were performed as described (DiGiandomenico, A., et al., Proc Natl Acad Sci USA 104, 4624-4629 (2007)), with modifications. In the acute pneumonia model, BALB/c mice (The Jackson Laboratory) were infected with P. aeruginosa strains suspended in a 0.05 ml inoculum. In the thermal injury model, CF-1 mice (Charles River) received a 10% total body surface area burn with a metal brand heated to 92° C. for 10 seconds. Animals were infected subcutaneously with P. aeruginosa strain 6077 at the indicated dose. For organ burden experiments, acute pneumonia was induced in mice followed by harvesting of lungs, spleens, and kidneys 24 hours post-infection for determination of CFU.

For assay [2], the system named is P. aeruginosa 6077 (O11-cytotoxic). Briefly: P. aeruginosa corneal infection (keratitis) model. It counts as in vivo, mice. Particulars: versus negative control-treated animals, 24 hours after infection. As for the experimental part:
FIG. 8 (A-G): Anti-Psl monoclonal antibodies Cam-003 and WapR-004 are active in a P. aeruginosa keratitis model and thermal injury model. Mice were treated with a control IgG1 antibody or Cam-003 at 45 mg/kg (A, B) or 15 mg/kg (C, D) or PBS or a control IgG1 antibody or Cam-003 at 45 mg/kg or WapR-004 at 45 mg/kg or 15 mg/kg or 5 mg/kg (F, G) 24 hours prior to infection with 6077 (O11-cytotoxic—2×10^6 CFU). Immediately before infection, three 1 mm scratches were made on the left cornea of each animal followed by topical application of P. aeruginosa in a 5 μl inoculum. 24 hours after infection, the corneal pathology scores were calculated followed by removal of the eye for determination of viable CFU. Differences in pathology scores and viable CFU were determined by the Mann-Whitney U-test. (A) P=0.0001, (B) P<0.0001, (C) P=0.0003, (D) P=0.0015. (F) and (G) Cam-003 (45 mg/kg) vs. WapR-004 (45 mg/kg): P=0.018; Cam-003 (45 mg/kg) vs. WapR-004 (15 mg/kg): P=0.0025; WapR-004 (45 mg/kg) vs. WapR-004 (15 mg/kg): P=0.1331; WapR-004 (5 mg/kg) vs. Ctrl: P<0.0001. Results are representative of five independent experiments. (E) Survival analysis from Cam-003 and R347 treated CF-1 mice in a P. aeruginosa thermal injury model after 6077 infection (2×10^5 CFU) (log-rank: R347 vs. Cam-003 15 mg/kg, P=0.0094; R347 vs. Cam-003 5 mg/kg, P=0.0017). […]

Assay [3] has as its system P. aeruginosa strains PAO1, 33356, 6294, 6077. Briefly: P. aeruginosa acute pneumonia model, survival. It counts as in vivo, BALB/c mice. Particulars: strain 6077 (O11) 8×10^5 or 6×10^5 CFU; 5 and 1 mg/kg; FIGS. 6E, 6F. As for the experimental part:
FIG. 6 (A-G): Survival rates for animals treated with anti-Psl monoclonal antibodies Cam-003 or WapR-004 in a P. aeruginosa acute pneumonia model. (A-D) Animals were treated with Cam-003 at 45, 15, and 5 mg/kg and R347 at 45 mg/kg or PBS 24 hours prior to intranasal infection with (A) PAO1 (1.6×10^7 CFU), (B) 33356 (3×10^7 CFU), (C) 6294 (7×10^6 CFU), (D) 6077 (1×10^6 CFU). (E-F) Animals were treated with WapR-004 at 5 and 1 mg/kg as indicated followed by infection with 6077 at (E) (8×10^5 CFU), or (F) (6×10^5 CFU). Animals were carefully monitored for survival up to 72 hours (A-D) or for 120 hours (E-F). (G) Animals were treated with Cam-003 at 15 mg/kg or 5 mg/kg, or R347 at 15 mg/kg 24 hours prior to intranasal infection with PAO1 (4.4×10^7 CFU), and Cam-003 at 15 mg/kg 24 hours prior to intranasal infection with PAO1ΔpslA (3×10^7 CFU). In all experiments, PBS and R347 served as negative controls. Results are represented as Kaplan-Meier survival curves; differences in survival were calculated by the Log-rank test for Cam-003 vs. R347. (A) Cam-003 (45 mg/kg—P<0.0001; 15 mg/kg—P=0.0003; 5 mg/kg—P=0.0033). (B) Cam-003 (45 mg/kg—P=0.0012; 15 mg/kg—P=0.0012; 5 mg/kg—P=0.0373). (C) Cam-003 (45 mg/kg—P=0.0007; 15 mg/kg—P=0.0019; 5 mg/kg—P=0.0212). (D) Cam-003 (45 mg/kg—P<0.0001; 15 mg/kg—P<0.0001; 5 mg/kg—P=0.0001). Results are representative of at least two independent experiments. […]

B1: WapR-004: anti-Psl antibody, VH SEQ ID NO: 11 and VL SEQ ID NO: 12 (antibody, V domains shown)
VH: EVQLLESGPGLVKPSETLSLTCNVAGGSISPYYWTWIRQPPGKGLELIGYIHSSGYTDYNPSLKSRVTISGDTSKKQFSLHVSSVTAADTAVYFCARGDWDLLHALDIWGQGTLVTVSS
VL: EIVLTQSPSSLSTSVGDRVTITCRASQSIRSHLNWYQQKPGKAPKLLIYGASNLQSGVPSRFSGSGSGTDFTLTISSLQPEDFATYYCQQSYSFPLTFGGGTKLEIK
modifications: WapR-004 VH; WapR-004 & WarR-004RAD VL
With B1, in assay [1], the “dissemination to the spleen and kidneys” value was “effective at reducing P. aeruginosa dissemination to the spleen and kidneys”; the organ burden entry is listed as “reduced organ burden”. Besides, the “bacterial counts in total eye homogenates” value in assay [2] is on record as “reduced bacterial counts”. Also, the corneal pathology entry in assay [2] (FIGS. 8A-D, F-G) is given as “significantly less pathology”. Also, in assay [3], the survival entry is “significant concentration-dependent survival”.

Source of the values: US10370436B2, “Anti-pseudomonas Psl binding molecules and uses thereof” (priority 2011, dated 2019).
